Results on five molecules are retold here after patent publication US20250313625A1 (ELPISCIENCE SUZHOU BIOPHARMA, published 2025).

For experiment [1], the target named is T1, human LAG3 (form used in Octet, Biacore and HDX-MS not given) (human, UniProt P18627 23-450, limits assumed).
T1 sequence (looked up): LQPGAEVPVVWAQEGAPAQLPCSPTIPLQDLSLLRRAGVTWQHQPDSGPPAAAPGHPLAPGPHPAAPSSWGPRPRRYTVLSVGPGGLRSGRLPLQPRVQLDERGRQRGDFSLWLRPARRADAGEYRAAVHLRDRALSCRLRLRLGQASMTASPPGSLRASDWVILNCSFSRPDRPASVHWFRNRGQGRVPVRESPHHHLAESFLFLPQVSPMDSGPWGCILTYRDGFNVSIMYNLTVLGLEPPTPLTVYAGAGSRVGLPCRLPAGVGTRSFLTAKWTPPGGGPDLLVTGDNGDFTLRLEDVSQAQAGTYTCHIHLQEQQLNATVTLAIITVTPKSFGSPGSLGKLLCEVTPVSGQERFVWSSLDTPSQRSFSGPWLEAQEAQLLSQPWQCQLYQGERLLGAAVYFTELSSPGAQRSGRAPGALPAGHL
Nature of the experiment: BLI (Octet), 1:1 fit. The protocol: (§1) The association and dissociation curves were fit with 1:1 binding model, and the Ka/Kd/KD values for each antibody were calculated.
as §1
On the technique in general: In BLI a coated tip is dipped into the sample, and binding shifts an interference pattern.

The target of experiment [2] is T2, human LAG3, full length, stably expressed on cells (human, UniProt P18627 23-525).
T2 construct: whole, on cells; also called CHOK1-human LAG3
T2 sequence (looked up): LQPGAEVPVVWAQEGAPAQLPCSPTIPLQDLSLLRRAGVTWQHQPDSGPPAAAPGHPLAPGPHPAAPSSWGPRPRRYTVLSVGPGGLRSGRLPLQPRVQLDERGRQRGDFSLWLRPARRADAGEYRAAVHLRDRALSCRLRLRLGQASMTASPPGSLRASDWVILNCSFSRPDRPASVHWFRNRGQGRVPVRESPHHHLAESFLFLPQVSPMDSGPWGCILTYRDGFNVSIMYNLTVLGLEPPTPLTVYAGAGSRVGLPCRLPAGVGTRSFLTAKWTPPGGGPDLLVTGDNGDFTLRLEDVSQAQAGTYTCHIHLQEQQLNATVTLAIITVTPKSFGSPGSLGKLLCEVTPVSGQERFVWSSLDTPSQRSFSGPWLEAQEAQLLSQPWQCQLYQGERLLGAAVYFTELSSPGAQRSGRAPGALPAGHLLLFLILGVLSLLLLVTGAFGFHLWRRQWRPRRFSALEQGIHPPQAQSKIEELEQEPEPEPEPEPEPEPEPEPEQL
The experiment can be described thus: FACS on CHOK1 cells stably expressing human LAG3. The method, then: (§2) MFI was detected and EC₅₀ was calculated using GraphPad Prism9.0.

Experiment [3] addresses T3, mFc tagged human LAG3 ECD recombinant protein (human, UniProt P18627 23-450).
T3 construct: extracellular domain; purchased from Biointron; not shown: mouse IgG Fc (mFc) tag
T3 sequence (looked up): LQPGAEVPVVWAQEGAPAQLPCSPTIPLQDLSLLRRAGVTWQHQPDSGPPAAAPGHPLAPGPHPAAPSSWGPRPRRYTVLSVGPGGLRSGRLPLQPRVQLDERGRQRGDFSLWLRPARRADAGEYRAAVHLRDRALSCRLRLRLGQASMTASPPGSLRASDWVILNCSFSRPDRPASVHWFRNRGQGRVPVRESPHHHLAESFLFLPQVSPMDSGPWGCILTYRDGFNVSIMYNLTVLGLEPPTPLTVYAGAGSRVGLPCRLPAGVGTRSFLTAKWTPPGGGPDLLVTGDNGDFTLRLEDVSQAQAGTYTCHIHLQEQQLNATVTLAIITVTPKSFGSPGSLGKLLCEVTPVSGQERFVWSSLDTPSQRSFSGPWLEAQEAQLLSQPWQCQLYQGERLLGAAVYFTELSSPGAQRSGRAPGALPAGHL
Nature of the experiment: competitive FACS: mFc tagged human LAG3 ECD binding to MHC II on Raji cells. The method, then: (§3) Activity of the purified chimeric antibodies to block LAG3 and MHC II interaction was determined by competitive FACS assay. […] After washing, dye labeled anti-mouse Fc 2nd antibody (Sigma) was added and incubated at 37° C. for 1 hour. Fluorescence intensity was detected.

For experiment [4], the target named is T1, human LAG3 (form used in Octet, Biacore …). The experiment can be described thus: BLI (Octet).
For experiment [5] the target is unchanged. The experiment can be described thus: SPR (Biacore), 1:1 fit. The method, then:
as §1

The target of experiment [6] is T2, human LAG3, full length, stably …. The experiment can be described thus: FACS on 293F cells stably expressing human LAG3. The method, then:
Briefly the antibodies were incubated with 2×10⁵ target cells at 4° C. for 1 hour. After washing, fluorescence labeled anti-mouse IgG 2nd antibody (Life Technologies) was added and incubated at 4° C. for 1 hour. Geometric median fluorescence intensity (MFI) was detected and EC₅₀ was calculated using GraphPad Prism9.0.
as §2

Experiment [7] deals with T3, mFc tagged human LAG3 ECD recombinant …. Nature of the experiment: competitive FACS: mFc-LAG3 ECD binding to Raji cells (MHC II). The method, then: as §3
Experiment [8] addresses T4, hFc tagged human LAG3 ECD recombinant protein (human, UniProt P18627 23-450).
T4 construct: range 23-450; also called biotin labelled hFc tagged human LAG3 ECD; not shown: human IgG Fc tag
T4 sequence (looked up): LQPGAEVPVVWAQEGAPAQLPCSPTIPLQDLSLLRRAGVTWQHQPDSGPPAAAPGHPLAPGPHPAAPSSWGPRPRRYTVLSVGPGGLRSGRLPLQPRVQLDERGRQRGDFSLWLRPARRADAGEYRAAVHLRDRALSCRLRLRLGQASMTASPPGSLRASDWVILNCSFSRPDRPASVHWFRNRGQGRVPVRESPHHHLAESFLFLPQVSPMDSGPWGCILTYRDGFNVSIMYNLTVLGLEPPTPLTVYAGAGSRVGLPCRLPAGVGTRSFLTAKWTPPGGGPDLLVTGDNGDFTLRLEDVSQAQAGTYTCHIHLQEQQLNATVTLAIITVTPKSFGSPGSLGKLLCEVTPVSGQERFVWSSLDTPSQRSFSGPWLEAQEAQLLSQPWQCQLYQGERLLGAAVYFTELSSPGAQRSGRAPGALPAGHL
The experiment can be described thus: competitive ELISA format II: biotin hFc-LAG3 ECD binding to coated His-FGL1. The method, then:
After washing, HRP labeled anti-His 2nd antibody (Sigma) was added and incubated at 37° C. for 1 hour. Then, 100 μl/well of TMB solution (Biotechnology) was added. After incubation for 15 minutes at room temperature, the reaction was stopped by the addition of 50 μl of 1N HCl. OD 450 nm was read. […] After washing, HRP labeled anti-SA 2nd antibody (Sigma) was added and incubated at 37° C. for 1 hour. Then, 100 μl/well of TMB solution (Biotechnology) was added. After incubation for 15 minutes at room temperature, the reaction was stopped by the addition of 50 μl of 1N HCl. OD 450 nm was read. […] The competition assay of format III is a competitive FACS assay. […] After washing, dye labeled anti-His 2nd antibody (Sigma) was added and incubated at 37° C. for 1 hour. Fluorescence intensity was detected.
Background: ELISA stands for enzyme-linked immunosorbent assay.

As usually defined, the Kd is the concentration at which binding is half-saturated. Higher therefore signals a looser complex. The koff is the rate constant with which the complex falls apart. High values mean a short-lived complex, low ones a long-lived complex. In general, kon refers to the second-order rate constant of association. Higher therefore signals fast association. The term EC50 denotes the midpoint of the concentration-response curve. Low readings indicate higher potency in that assay, high ones lower potency in that assay. The IC50 is the concentration needed to halve the response being measured.

B1: hu021.269 (antibody, V domains shown)
VH: QVQLQESGPGLVKPSQTLSLTCTVSGYSITSGYYWNWIRQHPGNKLEWIGDISYDGGNNYNPSLKNRVTISRDTSKNQFSLKLSSVTAADTAVYYCARDITLTGAMDYWGQGTTVTVSS
VL: EIVLTQSPATLSLSPGERATLSCRASESVDNYGISFMHWYQQKPGQAPRLLIYRASNRESGIPARFSGSGSRTDFTLTISSLEPEDFAVYYCQQSNKDPYTFGQGTKLEIK
notes: humanized from 021c
In experiment [1], B1 showed a Kd of 6.95 nM, a koff of 0.00314 s⁻¹ and a kon of 451000 M⁻¹ s⁻¹. In experiment [2], the EC50 was found to be 2.3 nM and the “TOP MFI” value was 598. For the same molecule, in experiment [3], the “%Blocking at 2 nM” value was determined as 9.9%, the “%Blocking at 4 nM” value worked out at 30.4% and the “%Blocking at 8 nM” value amounted to 70.2%.

B2: hu021.279 (antibody, V domains shown)
VH: QIQLQESGPGLVKPGQTLSLTCTVSGYSITSGYYWTWIRQHPGNKLEWIGDISYDAGNNYNPSLKNRITISRDTSKNQFSLKLSSVTAEDTATYYCARDITLTGAMDYWGQGTTVTVSS
VL: EIVLTQSPATLSLSPGERATLSCRASESVDNYGISFMHWYQQKPGQAPRLLIYRASNLESGIPARFSGSGSGTDFTLTISSLEPEDFAVYYCQQSNKDPYTFGQGTKLEIK
notes: humanized from 021c; also called hu21.279
In experiment [1], B2 gave a Kd of 3.57 nM, an off-rate constant (koff) of 0.00313 s⁻¹ and an association rate constant (kon) of 877000 M⁻¹ s⁻¹. In experiment [2], the EC50 was found to be 0.4 nM and the “TOP MFI” value was 669. Also, in experiment [3], the “%Blocking at 2 nM” value was 20%, the “%Blocking at 4 nM” value worked out at 40.3% and the “%Blocking at 8 nM” value amounted to 98.5%.

B3: hu021.212 (antibody, V domains shown)
VH: QVQLQESGPGLVKPSQTLSLTCTVSGYSISSGYYWNWIRQHPGNKLEWIGDISYEGGNNYNPSLKNRVTISRDTSKNQFSLKLSSVTAADTAVYYCARDITLTGAMDYWGQGTTVTVSS
VL: EIVLTQSPATLSLSPGERATLSCRASESVDNYGISFMHWYQQKPGQAPRLLIYRASNLETGIPARFSGSGSRTDFTLTISSLEPEDFAVYYCQQSNKDPYTFGQGTKLEIK
notes: humanized from 021c
Consider B3, for which, in experiment [2], the half-maximal effective concentration (EC50) came to 1.8 nM and the “TOP MFI” value turned out to be 586. Besides, in experiment [3], the “%Blocking at 2 nM” value came out at 4.6%, the “%Blocking at 4 nM” value amounted to 23.9% and the “%Blocking at 8 nM” value turned out to be 71.5%.

B4: hu023.04 (antibody, human IgG4, V domains shown)
VH: QVQLVQSGAEVKKPGASVKVSCKASGYTFTESPMNWVRQAPGQGFEWMGIIYTDTGEPTYAEEFKGRVTMTRDTSTSTVYMELSSLRSEDTAVYFCASDYGSILYWYFDVWGQGTLVTVSS
VL: DIQMTQSPSSLSASVGDRVTITCKASQDVSTAVAWYQQKPGKAPKLLIYSASYRYTGVPSRFSGSGSGTDFTLTISSLQPEDFATYYCQQHYNAPPTFGQGTKLEIK
notes: humanized from 023c
In experiment [4], B4 came in with a Kd of 0.537 nM, a koff of 0.000164 s⁻¹ and a kon of 305000 M⁻¹ s⁻¹. Further, in experiment [5], the dissociation constant (Kd) came out at 0.242 nM, the koff was 0.000402 s⁻¹ and the on-rate (kon) worked out at 1.66e+06 M⁻¹ s⁻¹. In addition, in experiment [6], the EC50 came out at 0.4 nM and the “TOP MFI” value was 3180. For the same molecule, in experiment [7], the 50% inhibitory concentration (IC50) worked out at 5.9 nM and the “TOP blocking (%)” value was 99.2%. In experiment [8], the IC50 turned out to be 1.7 nM and the “TOP blocking (%)” value came out at 82.2%.

B5: hu023.11 (antibody, human IgG4, V domains shown)
VH: QVQLVQSGPELKKPGASVKVSCKASGYTFTESPMNWVRQAPGQGFEWMGIIYTDTGEPTYAEEFKGRFVFSLDTSVSTAYLQISSLKAEDTAVYFCVSDYGSILYWYFDVWGQGTLVTVSS
VL: DIQMTQSPSSLSASVGDRVTITCKASQDVSTAVAWYQQKPGKSPKLLIYSASYRYTGVPSRFSGSGSGTDFTFTISSLQPEDFATYYCQQHYNAPPTFGQGTKLEIK
notes: humanized from 023c
As to B5, in experiment [4], the equilibrium dissociation constant (Kd) came to 0.0782 nM, the koff was determined as 2.37e-05 s⁻¹ and the kon was 303000 M⁻¹ s⁻¹. In experiment [5], this molecule came in with a dissociation constant (Kd) of 0.0205 nM, a koff of 9.1e-05 s⁻¹ and a kon of 4.43e+06 M⁻¹ s⁻¹. Besides, in experiment [6], it took 0.17 nM to reach a half-maximal effect (EC50) and the “TOP MFI” value was 3140. For the same molecule, in experiment [7], the half-maximal inhibitory concentration (IC50) came to 5.8 nM and the “TOP blocking (%)” value was 99.3%. For the same molecule, in experiment [8], the IC50 was found to be 1.2 nM and the “TOP blocking (%)” value is 83.9%.
